Results taken from article PMC10582448, “The Histone Chaperones SET/TAF‐1β and NPM1 Exhibit Conserved Functionality in Nucleosome Remodeling and Histone Eviction in a Cytochrome c‐Dependent Manner”.

Experiments:
histone H3 = histone H3 (Xenopus laevis, UniProt P84233 1-136); experiment: NMR; H3 competes with Cc for dsDNA; NMR: 10 mM sodium phosphate pH 7.4, 1 mM ascorbate, 1 mM TCEP, 5% D2O, 25 C; optical tweezers: 25 mM HEPES, 50 mM KCl, 0.1 mM EDTA, pH 7.5; conditions: protein: recombinant; blunt
SET/TAF-Ibeta = SET/TAF-Ibeta (Homo sapiens, UniProt Q01105-2 1-277); experiment: NMR; 10 mM sodium phosphate pH 7.4; NMR: 10 mM sodium phosphate pH 7.4, 1 mM ascorbate, 1 mM TCEP, 5% D2O, 25 C; optical tweezers: 25 mM HEPES, 50 mM KCl, 0.1 mM EDTA, pH 7.5; conditions: protein: recombinant; tags: N-terminal 6xHis; chain copies: 2; blunt
Chain of SET/TAF-Ibeta (Q01105 other isoform, or with tags, fused parts or gaps): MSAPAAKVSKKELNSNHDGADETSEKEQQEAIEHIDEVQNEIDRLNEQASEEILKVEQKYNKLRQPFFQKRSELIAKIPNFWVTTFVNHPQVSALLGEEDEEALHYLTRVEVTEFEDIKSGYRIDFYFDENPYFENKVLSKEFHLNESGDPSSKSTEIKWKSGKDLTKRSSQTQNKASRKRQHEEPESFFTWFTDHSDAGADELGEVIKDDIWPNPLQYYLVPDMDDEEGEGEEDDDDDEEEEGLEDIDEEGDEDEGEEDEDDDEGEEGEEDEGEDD

cytochrome c = cytochrome c (Homo sapiens, UniProt P99999 2-105); experiment: NMR; reduced Cc 13 uM, dsDNA 26 uM; Met80 signal decreased on dsDNA addition; NMR: 10 mM sodium phosphate pH 7.4, 1 mM ascorbate, 1 mM TCEP, 5% D2O, 25 C; optical tweezers: 25 mM HEPES, 50 mM KCl, 0.1 mM EDTA, pH 7.5; conditions: protein: recombinant; blunt
Chain of cytochrome c (P99999 2-105): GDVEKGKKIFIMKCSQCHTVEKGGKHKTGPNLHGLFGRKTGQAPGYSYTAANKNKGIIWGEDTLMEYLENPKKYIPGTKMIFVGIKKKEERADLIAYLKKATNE

B1: 10-mer dsDNA (dsDNA)
DNA 1: TAGCGTAACG
DNA 2: CGTTACGCTA
Q: Does B1 bind (histone H3)?
A: Result: binds

Q: Does B1 bind (SET/TAF-Ibeta)?
A: Result: no binding

Q: Does B1 bind (cytochrome c)?
A: Result: binds
